In patent US20230212235A1:

Key:
[1] = target: GFP [GFP: P42212]; assay: SPR, GFP immobilised, nanobody injected; kinetic Kd
[2] = target: GFP [GFP: P42212]; assay: SPR, GFP immobilised, nanobody injected; equilibrium Kd
[3] = target: GFP [GFP: P42212]; assay: SPR, GFP immobilised; order of magnitude told of all four nanobodies

Kd [1]: 18.9 nM | Kd [2]: 233 nM | koff [3]: 0.0001 s⁻¹ | kon [3]: 10000 M⁻¹ s⁻¹
Substance: GBN^WT (wild-type GFP-binding nanobody) (VHH)
